Results reported in publication doi:10.1101/207928.

Molecular target: glycosylated full-length human insulin receptor isoform A (human) (UniProt P06213)
Assay: negative-stain electron microscopy

- stoichiometry N: 2
Substance: glycosylated full-length human insulin receptor isoform A (from UniProt P06213-2 28-1370)
